The values that follow come from patent US20210038737A1.

pIC50, pKd: −log10 of the molar value.

Assay [1] has as its target CAL PDZ domain (CALP5-His) (UniProt Q9HD26). As to the kind of experiment: FP competition, condition B: probe FAM-…-OH (100 nM) with 500 nM CALP5-His; competitor titrated.
The target is the same in assay [2]. As to the kind of experiment: FP competition, condition A: probe peptide 26 (50 nM) with 100 nM CALP5-His; competitor titrated.
The target is the same in assay [3]. As to the kind of experiment: direct FP, condition C: 50 nM labeled peptide, CALP5-His titrated.
Assay [4] has the same target. As to the kind of experiment: FP competition.
The target is the same in assay [5]. As to the kind of experiment: direct FP: 50 nM FITC-labeled peptide, PDZ domain titrated.
Assay [6] shares this target. As to the kind of experiment: direct FP of FITC-labeled peptides.
The target is the same in assay [7]. As to the kind of experiment: direct FP, ratio of KD values.
For a further assay, the target named is NHERF1-PDZ1 domain (UniProt O14745). As to the kind of experiment: direct FP: 50 nM FITC-labeled peptide, PDZ domain titrated.
Chain of NHERF1-PDZ1 domain (O14745 14-94 limits assumed): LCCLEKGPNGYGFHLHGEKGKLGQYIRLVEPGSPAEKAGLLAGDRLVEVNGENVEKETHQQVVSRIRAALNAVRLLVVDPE
A further assay addresses NHERF2-PDZ2 domain (UniProt Q15599). The description is as above.
A further assay deals with NHERF2-PDZ1 domain (UniProt Q15599). The assay is described as above.
Chain of NHERF2-PDZ1 domain (Q15599 11-90 limits assumed): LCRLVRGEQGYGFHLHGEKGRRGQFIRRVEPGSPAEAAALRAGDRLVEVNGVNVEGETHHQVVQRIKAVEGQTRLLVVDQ

Chain of NHERF2-PDZ2 domain (Q15599 150-230 limits assumed): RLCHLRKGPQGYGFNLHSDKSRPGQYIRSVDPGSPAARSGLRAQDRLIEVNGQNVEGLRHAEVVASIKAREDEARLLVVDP

For “peptide 20: Ac-Cys-(D-Arg)-Arg-Arg-(2-Nal)-Trp-Gln-Pen-Thr-Arg-Tle-OH”, in assay [1], the pIC50 is 6.78. “peptide 21: Ac-Cys-(D-Arg)-(D-Arg)-Arg-(2-Nal)-Trp-Gln-Pen-Thr-Arg-Tle-OH” had a pIC50 in assay [1] of 6.57.

Regarding “peptide 22: Ac-Cys-Arg-(D-Arg)-Arg-(2-Nal)-Trp-Gln-Pen-Thr-Arg-Tle-OH”, the pIC50 in assay [2] is 6.40.

The substance “peptide 23: FAM-miniPEG-Cys-(D-Arg)-Arg-Arg-(2-Nal)-Trp-Pro-Pen-Thr-Arg-Tle-OH” had a pKd in assay [3] of 6.77. “peptide 24: Ac-Cys-(D-Arg)-Arg-Arg-(2-Nal)-Trp-Pen-Tle-Thr-Arg-Tle-OH” showed a negative logarithm of the IC50 (pIC50) in assay [1] of 6.42. The fold decrease in CAL binding (vs parent, printed as peptide 22) in assay [4] was found to be 2 fold. In turn, “peptide 25: Ac-Cys-(D-Arg)-Arg-Arg-(2-Nal)-(Bta)-Pen-Tle-Thr-Arg-Tle-OH” showed a pIC50 in [1] of 6.63. This substance also registered a fold more potent than peptide 24 in CAL binding in assay [4] of 1.5 fold. With “peptide 26: FAM-miniPEG-Cys-(D-Arg)-Arg-Arg-(2-Nal)-(Bta)-Pen-Tle-Thr-Arg-Tle-OH”, the pKd in [3] is 7.31. “peptide 27-FITC: FITC-miniPEG-Cys-(D-Arg)-Arg-Arg-Nal-Trp-Pro-Pen-Thr-Arg-Tle-OH”: the pKd in assay [5] was 6.75. Still for that read-out and setting: the figure for “peptide 28-FITC: FITC-miniPEG-Cys-(D-Arg)-Arg-Arg-Nal-Bta-Pro-Pen-Thr-Arg-Tle-OH” is 7.06. In assay [6], “peptide 29-FITC: FITC-miniPEG-Cys-(D-Arg)-Arg-Arg-Nal-Bta-Pip-Pen-Thr-Arg-Tle-OH” came in with a fold improvement of CAL PDZ-binding affinity (Pip for Pro, vs peptide 28) of 15 fold. The fold selectivity for CAL PDZ over NHERF1/2 PDZ domains in assay [7] was more than 130 fold. Moreover, the pKd in [5] is 8.22; with NHERF1-PDZ1 domain, 6.11; in the assay with NHERF2-PDZ2 domain it was 5.13; with NHERF2-PDZ1 domain, 5.86.
